Source: article PMC4968818

Molecular target: voltage-dependent anion channel (VDAC) protein (human (endogenous in T47D)) (UniProt P21796)
Test: co-IP; VDAC immunoprecipitated from cell lysate (anti-VDAC1/2/3, protein G agarose; lysate first blocked with 10 uM VDAC-binding membrane domain peptide), beads washed with PBS and incubated at RT for 50 min with recombinant HK at pH 7.8; western blots for HK-1, HK-2 and VDAC; band intensities normalized by VDAC bands

| Binder | amount co-precipitated at pH 7.8, percent of that at pH 6.2 [%] |
| --- | --- |
| recombinant hexokinase 1 (HK-1) (enzyme) MIAAQLLAYYFTELKDDQVKKIDKYLYAMRLSDETLIDIMTRFRKEMKNGLSRDFNPTATVKMLPTFVRSIPDGSEKGDFIALDLGGSSFRILRVQVNHEKNQNVHMESEVYDTPENIVHGSGSQLFDHVAECLGDFMEKRKIKDKKLPVGFTFSFPCQQSKIDEAILITWTKRFKASGVEGADVVKLLNKAIKKRGDYDANIVAVVNDTVGTMMTCGYDDQHCEVGLIIGTGTNACYMEELRHIDLVEGDEGRMCINTEWGAFGDDGSLEDIRTEFDREIDRGSLNPGKQLFEKMVSGMYLGELVRLILVKMAKEGLLFEGRITPELLTRGKFNTSDVSAIEKNKEGLHNAKEILTRLGVEPSDDDCVSVQHVCTIVSFRSANLVAATLGAILNRLRDNKGTPRLRTTVGVDGSLYKTHPQYSRRFHKTLRRLVPDSDVRFLLSESGSGKGAAMVTAVAYRLAEQHRQIEETLAHFHLTKDMLLEVKKRMRAEMELGLRKQTHNNAVVKMLPSFVRRTPDGTENGDFLALDLGGTNFRVLLVKIRSGKKRTVEMHNKIYAIPIEIMQGTGEELFDHIVSCISDFLDYMGIKGPRMPLGFTFSFPCQQTSLDAGILITWTKGFKATDCVGHDVVTLLRDAIKRREEFDLDVVAVVNDTVGTMMTCAYEEPTCEVGLIVGTGSNACYMEEMKNVEMVEGDQGQMCINMEWGAFGDNGCLDDIRTHYDRLVDEYSLNAGKQRYEKMISGMYLGEIVRNILIDFTKKGFLFRGQISETLKTRGIFETKFLSQIESDRLALLQVRAILQQLGLNSTCDDSILVKTVCGVVSRRAAQLCGAGMAAVVDKIRENRGLDRLNVTVGVDGTLYKLHPHFSRIMHQTVKELSPKCNVSFLLSEDGSGKGAALITAVGVRLRTEASS | 143 |
| recombinant hexokinase 2 (HK-2) (enzyme) MIASHLLAYFFTELNHDQVQKVDQYLYHMRLSDETLLEISKRFRKEMEKGLGATTHPTAAVKMLPTFVRSTPDGTEHGEFLALDLGGTNFRVLWVKVTDNGLQKVEMENQIYAIPEDIMRGSGTQLFDHIAECLANFMDKLQIKDKKLPLGFTFSFPCHQTKLDESFLVSWTKGFKSSGVEGRDVVALIRKAIQRRGDFDIDIVAVVNDTVGTMMTCGYDDHNCEIGLIVGTGSNACYMEEMRHIDMVEGDEGRMCINMEWGAFGDDGSLNDIRTEFDQEIDMGSLNPGKQLFEKMISGMYMGELVRLILVKMAKEELLFGGKLSPELLNTGRFETKDISDIEGEKDGIRKAREVLMRLGLDPTQEDCVATHRICQIVSTRSASLCAATLAAVLQRIKENKGEERLRSTIGVDGSVYKKHPHFAKRLHKTVRRLVPGCDVRFLRSEDGSGKGAAMVTAVAYRLADQHRARQKTLEHLQLSHDQLLEVKRRMKVEMERGLSKETHASAPVKMLPTYVCATPDGTEKGDFLALDLGGTNFRVLLVRVRNGKWGGVEMHNKIYAIPQEVMHGTGDELFDHIVQCIADFLEYMGMKGVSLPLGFTFSFPCQQNSLDESILLKWTKGFKASGCEGEDVVTLLKEAIHRREEFDLDVVAVVNDTVGTMMTCGFEDPHCEVGLIVGTGSNACYMEEMRNVELVEGEEGRMCVNMEWGAFGDNGCLDDFRTEFDVAVDELSLNPGKQRFEKMISGMYLGEIVRNILIDFTKRGLLFRGRISERLKTRGIFETKFLSQIESDCLALLQVRAILQHLGLESTCDDSIIVKEVCTVVARRAAQLCGAGMAAVVDRIRENRGLDALKVTVGVDGTLYKLHPHFAKVMHETVKDLAPKCDVSFLQSEDGSGKGAALITAVACRIREAGQR | 213 |
